According to the supplement of paper PMC9170038:

Test system: MS2 coat protein
Assay: apparent KD of MS2 coat protein; designed switch direction (-1 OFF switch, 1 ON switch): -1; higher = weaker reporter binding
Outline: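 Designed RNA switches were transcribed on Illumina chips by stalled E. coli RNA polymerase and titrated with SNAP-549-labelled MS2 coat protein from 0.7 or 1.5 nM, doubling to 3 µM. Step length ran from 0.8–1.5 h at the lowest concentration to 10–20 min at the highest. The apparent KD is the median over clusters for each design, from curve-fitted normalised cluster fluorescence.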

[1] = Eterna round: R95, input ligand: microRNA oligo, concentration not stated
[2] = input ligand: microRNA oligo, concentration not stated
[3] = Eterna round: R95, input ligand: FMN 200 uM
[4] = Eterna round: R95, input ligand: none

Row | Sequence | apparent KD of MS2 coat protein (input ligand: FMN 200 uM) | apparent KD of MS2 coat protein (input ligand: none) | apparent KD of MS2 coat protein [1] | further results
1 | CAUAUUCGAGGAUAUGCCUGAUGUCCUUAUGGAGCCCAUUCACAUGAGGAUCACCCAUGUAGAAGGCGGAUGCG [Eternabot (L1) Solution 37] (Eterna round: R97, puzzle: Exclusion 2) | 0.0312 µM | 0.0248 µM |  | 
2 | CAUGGAACAUAGGAUAUCUCGCGGCUAGGCUGCAGAGAAGGAUGUACAUGAGGAUCACCCAUGUAUGAUCCAAU [Ataratin] (puzzle: Exclusion 6) |  |  | 0.0163 µM | 
3 | CAUGGUUAACGAUUAUUCAACAUGAGGAUCACCCAUGUCUCUUUUUCUUUUUGCUCGUCUUAUCCUCCUUUGUUCAC [JR_STOV1_v2_Sub0102] (Eterna round: R97, puzzle: Sensor, turn-off variant 1) | 0.379 µM | 0.412 µM |  | 
4 | CAUGUGUAAGGAUAUGACAAUGGUAUCUUCGGAUACCAUUGUCAGAAGGUACAUGAGGAUCACCCAUGUGGAUC [Ex4-3: 20] (puzzle: Exclusion 4) |  |  | 0.222 µM | 
5 | CAUUAUUAUCGAGGAUAUCCUAUUGAAAUUCUGGGAGAAGGCGGACUCAACAUGAGGAUCACCCAUGUGGGACGGAUGCUAGGA [salish99_exng1_r04_602] (Eterna round: R96, puzzle: Exclusion NG 1) |  |  |  | apparent KD of MS2 coat protein [2]: 0.0133 µM
6 | CAUUAUUAUCGAGGAUAUCGUAUUGAGAUACUAUGAGAAGGCGGGAUAAACAUGAGGAUCACCCAUGUGAGCCUGAUGCUUGUG [Ex NG1 #37] (Eterna round: R96, puzzle: Exclusion NG 1) | 0.0174 µM | 0.0193 µM |  | apparent KD of MS2 coat protein [2]: 0.0143 µM
7 | CCAACGUGAGGAUAUGCAAUGCUAGCGGGAUCUUCUCUCCAACAUGAGGAUCACCCAUGUAGAAGGCGCUGUUG [Eternabot (L1) Solution 38] (Eterna round: R97, puzzle: Exclusion 2) | 0.198 µM | 0.0971 µM |  | 
8 | CCAAGCUACUUCAUUAUCCACAUGAGGAUCACCCAUGUCUUGGCAAUUAUGACCUGCCCGUCAGGAGCUCGUCUUAU [Sensor-V1 #39] (Eterna round: R97, puzzle: Sensor, turn-off variant 1) | 0.113 µM | 0.0552 µM |  | 
9 | CCAAGCUUAUUCAUUAACCACAUGAGGAUCACCCAUGUAUAGGCAAUUAUGACUGGGCUCUGUGGUGCUCGUCUUAU [Sensor-V1 #27] (Eterna round: R97, puzzle: Sensor, turn-off variant 1) | 0.146 µM | 0.143 µM |  | 
10 | CCAAGUCCAUAGGAUAUCGACCAGUCCUCUGGAUGAGAAGGAUGAACUUGAGGAUCACCCAAGUGGCCUAAUAC [Eddilesove] (Eterna round: R97, puzzle: Exclusion 6) | 0.0501 µM | 0.0239 µM |  | 
11 | CCACGACAUGAGGAUCACCCAUGUGAGGAUAUGGCCUGAAAAGCGUGAGCAGUUUCAAUCAGAAGGCGCGUGGG [salish99_ex1_r4_062] (Eterna round: R97, puzzle: Exclusion 1) | 0.162 µM | 0.0622 µM |  | 
12 | CCACUGCAUUGCAGUGUCGACAUGAGGAUCACCCAUGUGUCGCAGGCGCCGAGCUUUCCGCUCGUUACGUAUCGACG [Arorin] (Eterna round: R96, puzzle: Sensor v2, turn-off variant) | 0.0603 µM | 0.0607 µM |  | apparent KD of MS2 coat protein [2]: 0.0421 µM
13 | CCAGCGAGUGUGAGGAUAUGCUGGUCCUUGGAUCAGCAGAAGGCACAUGAGGAUCACCCAUGUGAAAACGUUGG [JL bmx4 3.30] (puzzle: Brourd's mod of Exclusion 4) |  |  | 0.0218 µM | 
14 | CCAGCGUAUGUGAGGAUAUGCUGGUCCUUGGAUCAGCAGAAGGCACAUGAGGAUCACCCAUGUGGAAACGUUGA [Mod of JL 2 - Jieux - Brourd's mod of Exclusion 4] (Eterna round: R97, puzzle: Brourd's mod of Exclusion 4) | 0.0449 µM | 0.0199 µM |  | 
15 | CCAGGCAAUUCCACUUGUAACAUGAGGAUCACCCAUGUGACCUGGUAUCAAGGCAGCUCGUCAUCCCACCAUAUUCA [Eternabot (L1) Solution 23] (Eterna round: R97, puzzle: Sensor, turn-off variant 1) | 0.0188 µM | 0.0184 µM |  | 
16 | CCAGGCGUCUUUGCUCGUCUUAUUUGGAGAGGACUGAUAACAUGAGGAUCACCCAUGUGUGUGGGAGCGUUGCAGUG [JR_SV3TOV2_Sub020] (puzzle: Sensor v3, turn-off variant 2) |  |  | 0.161 µM | apparent KD of MS2 coat protein [3]: 0.0863 µM; apparent KD of MS2 coat protein [4]: 0.116 µM

Row | Sequence | apparent KD of MS2 coat protein (input ligand: FMN 200 uM) | apparent KD of MS2 coat protein (input ligand: none) | apparent KD of MS2 coat protein [1] | further results
17 | CCAGGCUGUGUGAGGAUAUGCUGGUCCUUGGAUCAGCAGAAGGCACAUGAGGAUCACCCAUGUGAAGAGCUUGG [JL bmx4 3.23] (puzzle: Brourd's mod of Exclusion 4) |  |  | 0.0156 µM | 
18 | CCAGUGUAAGGAUAUCCGUUGCCGGAUAGAUGAUUAACAGCGGAGAAGGUACAUGAGGAUCACCCAUGUGUCCA [Eternabot (L1) Solution 8] (Eterna round: R97, puzzle: Exclusion 4) | 0.0309 µM | 0.0209 µM |  | 
19 | CCAUAUAACUGAGGAUAUACGCACCACUAACUAGUAGAAGGCAGACAUGAGGAUCACCCAUGUGAUUUCUCAAUAUUAUACAUC [Prohibition 74 - Jieux - Exclusion NG 1] (Eterna round: R96, puzzle: Exclusion NG 1) | 0.927 µM | 0.775 µM |  | apparent KD of MS2 coat protein [2]: 0.357 µM
20 | CCAUCGAGUGUGAGGAUAUGCUGGUCCUUGGAUCAGCAGAAGGCACAUGAGGAUCACCCAUGUGGAAACGGUGG [Mat - Exclusion 4 - JL Mod - D77] (puzzle: Brourd's mod of Exclusion 4) |  |  | 0.0277 µM | 
21 | CCAUGUUAGCAGGAUAUGCAAUAAAUCUUUUAAGCAGAAGGGCUUACAUGAGGAUCACCCAUGUAUAAAGUCAA [JR_E6_Sub079] (puzzle: Exclusion 6) |  |  | 0.0199 µM | 
22 | CCCACAUGAGGAUAUCCAUCUGGAUCAGACAAGAUCCUGAUGGAGAAGGUACAUGAGGAUCACCCAUGUGUGGG [Mat - Exclusion 4 - Eli Mod - D60] (Eterna round: R97, puzzle: Exclusion 4) | 0.189 µM | 0.267 µM |  | 
23 | CCCACCAGAGGAUAUGCGCAUAGAUCAGACUUUGUUUCUGAACAUGAGGAUCACCCAUGUAGAAGGCUGUAACC [Ex2 #87] (Eterna round: R97, puzzle: Exclusion 2) | 0.0252 µM | 0.0243 µM |  | 
24 | CCCAUGUCAGGAUAUCUAAGAGAGGGCCAGCCCUCUCCUCCGGAGAAGGGACAUGAGGAUCACCCAUGUAAAAC [Biedle] (puzzle: Exclusion 4) |  |  | 0.0933 µM | 
25 | CCCGCGCGUGUAGGAUAUGGCUCGGUGUCUGGGCCAGAAGGACAUGAGGAUCACCCAUGUCUGCGGGUGUGGGCGUGGUUUGGG [-36, -33 kcal A 14%] (Eterna round: R96, puzzle: Exclusion NG 1) | 0.0918 µM | 0.0272 µM |  | apparent KD of MS2 coat protein [2]: 0.0186 µM
26 | CCCUCAAGCGAGGAUAUAAAUGCGCAUUCGCGGUUAGAAGGCGCUACAUGAGGAUCACCCAUGUAAUUGAAUGG [jl-ex6-4.52 ViennaUCT mod] (Eterna round: R97, puzzle: Exclusion 6) | 0.117 µM | 0.0587 µM |  | 
27 | CCGAAAUCCUAGGAUAUGCUAGACGAAAGUCUAGCAGAAGGAGGAACAUGAGGAUCACCCAUGUGUCCUAUCGG [Mat - Exclusion 6 - Eli Mod - D30] (Eterna round: R97, puzzle: Exclusion 6) | 0.0231 µM | 0.0158 µM |  | 
28 | CCGACGUGAGGAUAUCCAUCUGGAUCAGACUAGAUCCUGAUGGAGAAGGCACAUGAGGAUCACCCAUGUUACGG [Eli 4x 4.41] (Eterna round: R97, puzzle: Exclusion 4) | 0.909 µM | 0.524 µM |  | 
29 | CCGACUCAAGGAUAUUGUACUGCUGACAUGAGGAUCACCCAUGUAUGUUAACUCGGCCGACGAGAAGGUGACGACA [BotMod 1 - Jieux - Exclusion 5] (Eterna round: R97, puzzle: Exclusion 5) | 0.0396 µM | 0.0431 µM |  | 
30 | CCGAGGUAGCGGUCCUAUGACAUGAGGAUCACCCAUGUACCUCGCUACGAGCUUUUUGCUCGUCUUAUAAUUCUCGG [JL Atriat mod 1] (puzzle: Sensor v3, turn-off variant 1) |  |  | 0.229 µM | apparent KD of MS2 coat protein [3]: 0.0552 µM; apparent KD of MS2 coat protein [4]: 0.0736 µM
31 | CCGCAACAUGAGGAUCACCCAUGUCAGGAUAUCGUACGUUCGUCGAAAGACGAUCGUACGAGAAGGGUGUGCGG [Eli x1 4.36] (Eterna round: R97, puzzle: Exclusion 1) | 0.0798 µM | 0.11 µM |  | 
32 | CCGCAUAAGCAGGAUAUCGUAUCGGAAACGAUACGAGAAGGGUUAACAUGAGGAUCACCCAUGUUCCUUAACGG [Fiskers Ex 6 - 30] (puzzle: Exclusion 6) |  |  | 0.0175 µM | 
